# Laboratory results taken from patent US20260098102A1 (NATIONAL UNIVERSITY CORPORATION KOBE UNIVERSITY, published 2026).
# T1: mouse SIRPA_C57BL/6 (mouse (C57BL/6), UniProt P97797 32-513)
# T1 construct: FLAG-tagged (pFLAG V5-DEST), on 293α cells
# T1 sequence: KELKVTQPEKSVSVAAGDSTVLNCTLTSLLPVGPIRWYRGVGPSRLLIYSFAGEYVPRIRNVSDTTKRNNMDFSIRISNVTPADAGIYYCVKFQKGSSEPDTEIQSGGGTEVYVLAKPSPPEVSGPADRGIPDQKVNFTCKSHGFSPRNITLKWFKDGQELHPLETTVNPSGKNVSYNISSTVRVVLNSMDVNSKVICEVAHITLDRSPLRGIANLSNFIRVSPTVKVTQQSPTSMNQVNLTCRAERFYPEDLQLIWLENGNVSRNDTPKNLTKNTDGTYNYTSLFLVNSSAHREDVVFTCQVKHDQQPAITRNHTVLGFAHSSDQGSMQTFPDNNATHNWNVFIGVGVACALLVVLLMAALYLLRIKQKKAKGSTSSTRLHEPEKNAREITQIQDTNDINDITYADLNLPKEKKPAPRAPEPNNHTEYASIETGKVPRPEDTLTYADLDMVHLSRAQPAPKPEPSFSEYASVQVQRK
# T2: mouse SIRPA_NOD (mouse (NOD), UniProt P97797 32-513)
# T2 construct: FLAG-tagged (pFLAG V5-DEST), on 293α cells; also called NOD SCID
# T2 chain: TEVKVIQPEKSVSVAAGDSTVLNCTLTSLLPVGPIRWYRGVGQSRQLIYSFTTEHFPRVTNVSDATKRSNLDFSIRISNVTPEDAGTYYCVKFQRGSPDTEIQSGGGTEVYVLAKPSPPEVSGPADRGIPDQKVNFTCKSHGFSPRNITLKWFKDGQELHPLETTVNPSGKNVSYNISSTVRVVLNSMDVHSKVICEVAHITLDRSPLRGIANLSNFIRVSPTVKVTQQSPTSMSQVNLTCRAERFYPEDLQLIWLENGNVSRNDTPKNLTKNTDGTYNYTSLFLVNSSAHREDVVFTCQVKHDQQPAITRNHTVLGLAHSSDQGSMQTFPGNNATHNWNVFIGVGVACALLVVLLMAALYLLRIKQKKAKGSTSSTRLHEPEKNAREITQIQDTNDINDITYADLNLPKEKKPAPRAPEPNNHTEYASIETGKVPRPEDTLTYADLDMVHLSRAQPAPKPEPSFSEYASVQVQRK
# T3: mouse SIRPA_129 (mouse (129), UniProt P97797 32-513)
# T3 construct: FLAG-tagged (pFLAG V5-DEST), on 293α cells; also called 129sv
# T3 chain: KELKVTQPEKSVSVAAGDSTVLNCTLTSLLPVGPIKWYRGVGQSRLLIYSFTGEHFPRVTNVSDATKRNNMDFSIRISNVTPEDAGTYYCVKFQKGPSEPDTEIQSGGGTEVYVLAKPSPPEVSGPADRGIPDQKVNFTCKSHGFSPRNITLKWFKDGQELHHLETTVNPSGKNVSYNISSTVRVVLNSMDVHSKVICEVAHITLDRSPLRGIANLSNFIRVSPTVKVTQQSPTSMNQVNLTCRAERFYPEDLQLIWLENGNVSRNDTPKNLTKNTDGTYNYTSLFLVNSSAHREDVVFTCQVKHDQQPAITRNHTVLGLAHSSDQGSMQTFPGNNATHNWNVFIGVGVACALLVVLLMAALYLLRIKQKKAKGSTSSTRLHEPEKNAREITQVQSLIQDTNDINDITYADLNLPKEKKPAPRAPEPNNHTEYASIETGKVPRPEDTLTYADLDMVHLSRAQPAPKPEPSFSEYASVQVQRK
# T4: mouse SIRPA BALB/c (mouse (BALB/c), UniProt P97797 35-513)
# T4 construct: FLAG-tagged (pFLAG V5-DEST), on 293α cells
# T4 chain: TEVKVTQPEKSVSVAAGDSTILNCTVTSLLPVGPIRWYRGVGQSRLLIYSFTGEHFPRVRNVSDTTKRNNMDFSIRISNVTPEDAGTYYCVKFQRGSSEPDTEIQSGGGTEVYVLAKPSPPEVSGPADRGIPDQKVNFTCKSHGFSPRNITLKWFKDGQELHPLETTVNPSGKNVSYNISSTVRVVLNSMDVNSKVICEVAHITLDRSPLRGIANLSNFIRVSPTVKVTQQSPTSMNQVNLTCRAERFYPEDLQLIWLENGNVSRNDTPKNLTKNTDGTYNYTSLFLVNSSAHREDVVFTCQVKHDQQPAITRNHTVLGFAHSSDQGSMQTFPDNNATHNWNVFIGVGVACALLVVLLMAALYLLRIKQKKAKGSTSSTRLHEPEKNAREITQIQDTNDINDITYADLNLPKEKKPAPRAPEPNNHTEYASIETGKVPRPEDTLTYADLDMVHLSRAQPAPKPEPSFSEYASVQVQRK
# T5: human SIRPA_V4 (human, UniProt P78324 31-504)
# T5 construct: FLAG-tagged (pFLAG V5-DEST), on 293α cells; also called human SIRPA Variant 4
# T5 chain: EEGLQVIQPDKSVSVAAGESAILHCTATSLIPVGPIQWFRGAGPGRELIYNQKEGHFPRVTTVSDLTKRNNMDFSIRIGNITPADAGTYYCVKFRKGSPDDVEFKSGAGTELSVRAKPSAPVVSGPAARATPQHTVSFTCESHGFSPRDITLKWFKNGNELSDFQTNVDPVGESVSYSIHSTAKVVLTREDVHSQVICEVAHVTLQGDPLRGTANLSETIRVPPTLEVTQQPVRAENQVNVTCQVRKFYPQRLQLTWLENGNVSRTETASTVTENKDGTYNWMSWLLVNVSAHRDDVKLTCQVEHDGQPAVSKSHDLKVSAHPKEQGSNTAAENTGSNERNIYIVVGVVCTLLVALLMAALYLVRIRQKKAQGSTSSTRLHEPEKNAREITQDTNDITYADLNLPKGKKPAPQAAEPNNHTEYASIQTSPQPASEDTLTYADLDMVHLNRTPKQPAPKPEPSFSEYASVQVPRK
# B1: rat anti-human SIRPA monoclonal antibody F44 (antibody, V domains shown)
# VH: EVQLVESGGGLVQPGRSLKLSCAASGFTFSNYYMAWVRQAPTKGLEWVTYITTGGGSTYFRDSVKGRFTISRDNAESTLYLQMDSLRSEDTATYYCTAANYGGSYFDYWGQGVMVTVSS
# VL: DVQMTQSPSNLAASPGESVSINCKASKSISKYLAWYQQKPGKANKLLIYSGSTLQSGTPSRFSGSGSGTDFTLTIRNLEPEDFGLYYCQQHNEYPPTFGAGTKLELK
# notes: Rat IgG2a/kappa purified from hybridoma
# B2: rat anti-human SIRPA monoclonal antibody F63 (antibody, V domains shown)
# VH: QVQLKESGPGLVQPSETLSLTCTVSGFSLASYSLSWVRQPSGKGPEWMGRMYYDGDTAYNSALKSRLSISRDTSKNQVFLKMNSLQTDDTGTYYCTRDRSMFGTDYPHWYFDFWGPGTMVTVSS
# VL: QFTLTQPKSVSGALRSTITIPCERSSGDIGDSYVSWYQRHLGRPPINVIYADDQRPSEVSDRFSGSIDSSSNSASLTITNLQMDDEADYFCQSYDSKIDIFGGGTKLTVL
# notes: Rat IgG2a/lambda purified from hybridoma
# Key:
# [1] = molecular target: T1, mouse SIRPA_C57BL/6; assay: cell-based ELISA, transfected 293α cells
# Procedure: (§1) After the culture supernatant of 293α cells into which the pFLAG V5-DEST-monkey SIRPA or pFLAG V5-DEST-mouse SIRPA expression vector was introduced and the pFLAG V5-DEST-introduced 293α cells prepared in Example 1)-5-2 was removed, binding to monkey or mouse SIRPA was evaluated in the same manner as for the binding activity of human SIRPA.
# [2] = molecular target: T2, mouse SIRPA_NOD; assay: cell-based ELISA, transfected 293α cells
# Procedure: as §1
# [3] = molecular target: T3, mouse SIRPA_129; assay: cell-based ELISA, transfected 293α cells
# Procedure: as §1
# [4] = molecular target: T4, mouse SIRPA BALB/c; assay: cell-based ELISA, transfected 293α cells
# Procedure: as §1
# [5] = molecular target: T5, human SIRPA_V4; assay: cell-based ELISA, transfected 293α cells, 10,000 ng/mL, normalized to FLAG
# Procedure: (§2) After the culture supernatant of 293α cells into which the vector expressing 10 different variant proteins prepared in Example 2)-1-1 was introduced was removed, 50 μL per well of a purified rat anti-human SIRPA antibody diluted with 5% FBS-containing PBS to a final concentration of 10,000 ng/ml was added to each of pFLAG V5-DEST-SIRPA_V1-V10 and pFLAG V5-DEST-introduced 293α cells, and the mixture was allowed to stand at 4° C. for one hour. Further, 50 μL per well of an anti-FLAG M2 antibody (SIGMA) diluted with 5% FBS-containing PBS to a final concentration of 10,000 ng/mL was added to a well for detecting expression of each SIRPA variant, and the mixture was allowed to stand at 4° C. for one hour. Thereafter, binding to 10 different human SIRPA variants was evaluated in the same manner as in the evaluation of the binding activity of the human SIRPA described in 1)-6-2. Binding of the rat anti-human SIRPA antibodies to each variant was standardized by expression of the FLAG tag.
# [6] = molecular target: T6, human SIRPA_V8 (human, UniProt P78324 31-504); assay: as above
# T6 construct: FLAG-tagged (pFLAG V5-DEST), on 293α cells; also called human SIRPA Variant 8
# Procedure: as §2
binder,measurement,setting,value
B1,binding result,[1],no binding
same,binding result,[2],no binding
same,binding result,[3],no binding
same,binding result,[4],no binding
same,binding result,[5],binds
same,binding result,[6],binds
B2,binding result,[1],no binding
same,binding result,[2],no binding
same,binding result,[3],no binding
same,binding result,[4],no binding
same,binding result,[5],binds
same,binding result,[6],binds
